Read-outs that look alike come from different tables or passages of the source.
Assay: Ratiometric fluorescence glucose titration of fluorescent conjugates
Format: binding
Details: tsGBP 13C affinity mutants, Acrylodan or Badan conjugates
How it was run: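 Single-cysteine glucose-binding protein mutants labelled site-specifically with thiol-reactive environmentally sensitive fluorophores; emission spectra recorded during glucose titration to detect ligand-mediated intensity and spectral-shape changes for ratiometric read-out. Temperature- and ligand-dependent fluorescence landscapes acquired in 1K steps; binding fitted to single-site fractional saturation.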

[1] = read-out: Glucose affinity ^appKd

B1: D278N A: tsGBP2.13C.D278N (SEQ ID NO: 50) Acrylodan conjugate (conjugate)
chain: MKLEIFSWWAGDCGPALEALIRLYKQKYPGVEVINATVTGGAGVNAKAVLKTRMLGGDPPDTFQVHAGQELIGTWVVADRMEDLTSLFRQEGWLQAFPKGLIDLLSYKGGIWSVPVNIHRSNVMWYIPAKLKEWGVTPPKTWAEFLATAQTLKRKGLEAPLALGENWTQQHLWESVALATLGADGWNNLWSGKLKFTDPKAVAVWETFGKVLDAANKDAAGLSWQQAVDRVVQGKAAFNIMGDWAAGYMSTTLKLKPGTDFAWTPSPGTSGIFMMLSNSFGLPKGAKNRQNAINWLKLVGSKEGQDTFNPLKGSIAARLDSDPAKYNAYGQSAMKDWKSNRIVGSLVHGAVAPESFMSQFGTVMEIFLQSRNPQAAANAAQAIANQVGLGRGGSHHHHHH
modifications: Acrylodan conjugate; tsGBP2.13C.D278N (13C, 278N double substitution mutant with signal peptide replaced with M and a GGSHHHHHH at C-terminus)
Kd [1]: ~100 mM
Kd (read-out: Glucose affinity ^trueKd): ~100 mM

B2: D278S A: tsGBP2.13C.D278S (SEQ ID NO: 51) Acrylodan conjugate (conjugate)
chain: MKLEIFSWWAGDCGPALEALIRLYKQKYPGVEVINATVTGGAGVNAKAVLKTRMLGGDPPDTFQVHAGQELIGTWVVADRMEDLTSLFRQEGWLQAFPKGLIDLLSYKGGIWSVPVNIHRSNVMWYIPAKLKEWGVTPPKTWAEFLATAQTLKRKGLEAPLALGENWTQQHLWESVALATLGADGWNNLWSGKLKFTDPKAVAVWETFGKVLDAANKDAAGLSWQQAVDRVVQGKAAFNIMGDWAAGYMSTTLKLKPGTDFAWTPSPGTSGIFMMLSSSFGLPKGAKNRQNAINWLKLVGSKEGQDTFNPLKGSIAARLDSDPAKYNAYGQSAMKDWKSNRIVGSLVHGAVAPESFMSQFGTVMEIFLQSRNPQAAANAAQAIANQVGLGRGGSHHHHHH
modifications: Acrylodan conjugate; tsGBP2.13C.D278S (13C, 278S double substitution mutant with signal peptide replaced with M and a GGSHHHHHH at C-terminus)
Change (fluorescence response to glucose): m/d

B3: D278N B: tsGBP2.13C.D278N (SEQ ID NO: 50) Badan conjugate (conjugate)
chain: MKLEIFSWWAGDCGPALEALIRLYKQKYPGVEVINATVTGGAGVNAKAVLKTRMLGGDPPDTFQVHAGQELIGTWVVADRMEDLTSLFRQEGWLQAFPKGLIDLLSYKGGIWSVPVNIHRSNVMWYIPAKLKEWGVTPPKTWAEFLATAQTLKRKGLEAPLALGENWTQQHLWESVALATLGADGWNNLWSGKLKFTDPKAVAVWETFGKVLDAANKDAAGLSWQQAVDRVVQGKAAFNIMGDWAAGYMSTTLKLKPGTDFAWTPSPGTSGIFMMLSNSFGLPKGAKNRQNAINWLKLVGSKEGQDTFNPLKGSIAARLDSDPAKYNAYGQSAMKDWKSNRIVGSLVHGAVAPESFMSQFGTVMEIFLQSRNPQAAANAAQAIANQVGLGRGGSHHHHHH
modifications: Badan conjugate; tsGBP2.13C.D278N (13C, 278N double substitution mutant with signal peptide replaced with M and a GGSHHHHHH at C-terminus)
Kd [1]: 99 mM
Change (fluorescence response to glucose): m/d
